Reference: paper PMC8484680

Assays:
[1] = molecular target: PsFucS1, fucoidan active sulfatase (subfamily S1_13) from Pseudoalteromonas sp. MB47 (Pseudoalteromonas sp. MB47); experiment: SEC; analytical SEC, HiLoad 16/600 Superdex 200 pg, room temperature, 200 µl of His-tagged PsFucS1 at 6 mg/ml, 50 mM Tris-HCl pH 8.0, 100 mM NaCl; calibrated with standards of 13.7-440 kDa
[2] = molecular target: PsFucS1, fucoidan active sulfatase (subfamily S1_13) from Pseudoalteromonas sp. MB47 (Pseudoalteromonas sp. MB47); experiment: crystal structure; X-ray, 2.50 Å, space group P212121, six molecules in the asymmetric unit; crystals grown at 20 °C in 0.1 M sodium acetate pH 4.6, 0.1 M NaCl, 20% PEG 3350; interfaces analysed with PISA

PsFucS1, fucoidan active sulfatase (subfamily S1_13) from Pseudoalteromonas sp. MB47 (enzyme)
stoichiometry N [1]: 6
stoichiometry N [2]: 6
